{"source": "paper PMC9440474", "about": "(2022)", "binders": {"B1": {"name": "Sortase A (protein)", "chain": "MKKWTNRLMTIAGVVLILVAAYLFAKPHIDNYLHDKDKDEKIEQYDKNVKEQASKDKKQQAKPQIPKDKSKVAGYIEIPDADIKEPVYPGPATPEQLNRGVSFAEENESLDDQNISIAGHTFIDRPNYQFTNLKAAKKGSMVYFKVGNETRKYKMTSIRDVKPTDVGVLDEQKGKDKQLTLITCDDYNEKTGVWEKRKIFVATEVK"}}, "key": {"S1_APBA-3*": {"biological_target": "T1, S1_APBA-3* (linker (positions not given here) via APBA‑3; reading uncertain)", "T1 chain": "ACLIPSWGCGGG-{Dap(FAM)}", "test": "fluorescence polarization"}, "S1_SS*": {"biological_target": "T2, S1_SS* (disulfide 2-9 (inferred))", "T2 chain": "ACLIPSWGCGGG-{Dap(FAM)}", "test": "fluorescence polarization"}, "S1_SS": {"biological_target": "T3, S1_SS (disulfide 2-9 (inferred))", "T3 chain": "ACLIPSWGCGGG", "test": "fluorescence polarization competition"}}, "note": "Bridge positions count the residues as written; N and C are the ends. Ends that are not written are not given here. APBA‑3 = not defined here", "data": [{"binder": "B1", "values": [{"measurement": "Kd", "setting": "S1_APBA-3*", "value": 64, "unit": "µM"}, {"measurement": "Kd", "setting": "S1_SS*", "value": 5.2, "unit": "µM"}, {"measurement": "IC50", "setting": "S1_SS", "value": 26, "unit": "µM"}]}]}
